Data published in patent publication US20070184522A1, “Cell death modulation via antagonists of Fasl and Fas activation” (University of Pittsburgh of the Commonwealth System of …, priority 2004, published 2007).

Target: T1, Fas-Fc (extracellular part of Fas) (Mus musculus, UniProt P25446)
T1 construct: purchased R&D
T1 sequence (P25446 22-169 limits assumed): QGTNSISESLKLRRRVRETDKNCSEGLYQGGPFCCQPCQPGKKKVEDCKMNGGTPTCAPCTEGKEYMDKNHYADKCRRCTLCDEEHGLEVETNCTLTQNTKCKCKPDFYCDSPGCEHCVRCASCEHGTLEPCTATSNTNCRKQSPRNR
Experiment: Fas-Fc pull down assay with protein-A agarose
Type: binding
From the text: The Met alpha but not beta chain binds to Fas (FIG. 1a). Various regions of the mouse Met cDNA corresponding to the alpha chain or the extra-cellular portion of the Met beta chain were cloned into expression vectors (pCRT7 TOPO/AlphaMet or pCRT7 TOPO/beta chain) and subjected to in vitro transcription/translation by a rabbit reticolucyte lysate translation system. Empty vector was included in each experiment as a control. The expressed proteins were labeled with ^35S-Methionine. Pull down assays were performed using Fas-Fc, a chimeric molecule which lacks the interacellular cytoplasmic domain and protein-A agarose as described in Wang et al., 2002. FIG. 1b is a schematic presentation of the Met alpha chain and its mutant version used to map the region interacting with Fas. The C-terminus of each construct contains a hexa-Histidine tag for ease of detection. Start cordon ATG was added to the N-terminally truncated constructs. The YLGA (SEQ ID NO:1) motif mutation was prepared by PCR, in which YLGA (SEQ ID NO:1) was replaced by DHER (SEQ ID NO:24). […] In vitro translated ^35S-methionine labeled truncated/mutated AlphaMet proteins were pulled down with 2 μg of Fas-Fc or the same amount of IgG. Lane 1: 10% of AlphaMet input; Lane 2: AlphaMet with IgG control; Lanes 3 to 8: pull down of various truncated AlphaMet proteins; N-terminal 1-106 residues; C-terminal truncated, residues 1-210; alpha chain, residues 1-306; alpha chain with transmembrane domain, 1-338; N-terminally truncated alpha chain, residues 100-306; and N-terminally truncated with addition of the transmembrane domain 100-338, respectively. FIG. 1d depicts the amino acid sequence alignment of alpha chain with FasL, determined using the CLUSTALW, SIM+LALNVIEW, and ALIGN at ExPASy Proteomic Tools (available on the internet at us.expresly.org/tools). The numbers indicate the amino acid residues of the indicated protein. […] Recombinant His-tagged AlphaMet or its mutant version were expressed in E. coli, purified with chromatography, and subjected to Fas-Fc (lanes labeled Fas) or control IgG pull down experiments, and detected by Western blot using anti-His antibody that recognizes C-terminal His. This antibody also recognizes the Fas-Fc which is also tagged at the C-terminus by His. […] Purified recombinant AlphaMet protein (approximately 10 μg) was mixed with Hepa 1-6 cells or Jurkat cell lysates and subjected to immunoprecicitation using anti-Fas antibody or control IgG followed by Western blot using anti His-tag antibody as a probe. […] After washing the wells, anti-human […]-HRP conjugates (1:20,000) were added to detect the bound Fas-Fc using TMD dye and the OD value was determined at a wavelength of 450 nm. […]

B1: alpha subunit of Met (AlphaMet), amino acid residues 1 to 306, His-tagged (receptor, mouse)
chain: MKAPTVLAPGILVLLLSLVQRSHGECKEALVKSEMNVNMKYQLPNFTAETPIQNVVLHGHHIYLGATNYIYVLNDKDLQKVSEFKTGPVLEHPDCLPCRDCSSKANSSGGVWKDNINMALLVDTYYDDQLISCGSVNRGTCQRHVLPPDNSADIQSEVHCMFSPEEESGQCPDCVVSALGAKVLLSEKDRFINFFVGNTINSSYPPGYSLHSISVRRLKETQDGFKFLTDQSYIDVLPEFLDSYPIKYIHAFESNHFIYFLTVQKETLDAQTFHTRIIRFCSVDSGLHSYMEMPLECILTEKRRKRHHHHHH
- Fas binding in Fas-Fc pull down (in vitro translated 35S-labeled proteins, autoradiography, listed as Met alpha chain): bound specifically to the Fas molecule
- Fas binding in Fas-Fc pull down (in vitro translated 35S-labeled proteins, autoradiography, listed as full length AlphaMet): bound Fas very efficiently
- Fas binding in Fas-Fc pull down (recombinant His-tagged proteins expressed and purified in E. coli, Western blot anti-His): bound avidly
